From publication doi:10.1101/2024.03.07.583884

How the values were obtained:
[1] = biological target: mACE 1-357 ACE2-Cherry hybrid (mouse | human) (UniProt Q8R0I0)
[2] = biological target: Pus8AA+LMY➔A-ACE2-Cherry (human) (UniProt Q9BYF1)

OM.BA.1-RBD-β2AR-GFP (from UniProt P0DTC2 333-529) (domain or fragment)
loss of ACE2 fluorescence, DPF assay [1]: 24.8%
reduction of Pus8AA +LMY➔A-Cherry fluorescence, DPF assay [2]: 17.2%
